Test results: paper PMC9038728, “Development of broadly neutralizing antibodies targeting the cytomegalovirus subdominant antigen gH” (Communications Biology, 2022)

Target: T1, HCMV gH/gL complex expressed in U373 astrocytoma cells (Human cytomegalovirus (HHV-5), strain …, UniProt P12824;P16832)
T1 construct: Human cytomegalovirus envelope glycoprotein H (gH); Human cytomegalovirus envelope glycoprotein L (gL); The immunisation plasmid and the peptide array used TB40/E gH, but no strain is named for the U373 cells; also called gH/gL-dimer; U373-gH/gL
Assay: flow cytometry on cells; Competition of the anti-gH mAbs with MSL-109. The set-up for MSL-109 is not told. The competition assay in the methods uses fixed, permeabilised U373-gH/gL cells, AF647-labelled antibody plus unlabelled antibody, 4 °C, 1 h.
Settings: one partner purified

B1: MSL-109 (antibody, V domains shown)
VH: EEQVLESGGGLVKPGGSLRLSCAASGFTFSPYSVFWVRQAPGKGLEWVSSINSDSTYKYYADSVKGRFTISRDNAENSIFLQMNSLRAEDTAVYYCARDRSYYAFSSGSLSDYYYGLDVWGQGTLVTVSS
VL: DIVMTQSPLSLSVTPGEPASISCRSSQSLLHTNGYNYLDWYVQKPGQSPQLLIYLASNRASGVPDRFSGSGSGTDFTLKISRVETEDVGVYYCMQALQIPRTFGQGTKVEIK
notes: Human IgG1 constant region from the pFuse vector (InvivoGen); Human kappa constant region from the pFuse vector (InvivoGen); Human IgG1 kappa; source: HEK-293, heavy and light chain co-transfected, purified from the cell supernatant
- binding result: binds
